In US20130096058A1:

Molecular target: Murine CD40L on the Th2 cell line D10.G4.1 (mouse) (UniProt P27548)
Assay: cell-based or functional assay

Sequence of Murine CD40L on the Th2 cell line D10.G4.1 (mouse) (P27548 whole entry): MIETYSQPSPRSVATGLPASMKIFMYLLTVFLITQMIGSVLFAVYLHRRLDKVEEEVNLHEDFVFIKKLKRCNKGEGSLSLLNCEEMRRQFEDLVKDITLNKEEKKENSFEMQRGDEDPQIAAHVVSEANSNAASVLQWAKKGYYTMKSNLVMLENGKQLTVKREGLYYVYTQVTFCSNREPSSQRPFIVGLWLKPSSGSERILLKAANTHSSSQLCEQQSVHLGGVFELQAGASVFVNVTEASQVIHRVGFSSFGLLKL

Substance: MR1 antibody
- IC50 of inhibition of MuCD40L-induced CD86 expression on B cells: 100 µM
